Reference: patent US8933021B2, “Insulin derivative” (Novo Nordisk A/S, priority 2006, dated 2015)

Legend:
[1] = Hydrophobicity (hydrophobic index k'rel) relative to human insulin by isocratic RP-HPLC; assay type: physicochemical
Procedure: The elution was monitored by following the UV absorption of the eluate at 214 nm. Void time, t0, was found by injecting 0.1 mM sodium nitrate.

human insulin receptor = human insulin receptor (Homo sapiens, UniProt P06213); test: Insulin receptor binding, SPA antibody capture assay
Chain of human insulin receptor (P06213 28-746 isoform P06213-2 limits assumed): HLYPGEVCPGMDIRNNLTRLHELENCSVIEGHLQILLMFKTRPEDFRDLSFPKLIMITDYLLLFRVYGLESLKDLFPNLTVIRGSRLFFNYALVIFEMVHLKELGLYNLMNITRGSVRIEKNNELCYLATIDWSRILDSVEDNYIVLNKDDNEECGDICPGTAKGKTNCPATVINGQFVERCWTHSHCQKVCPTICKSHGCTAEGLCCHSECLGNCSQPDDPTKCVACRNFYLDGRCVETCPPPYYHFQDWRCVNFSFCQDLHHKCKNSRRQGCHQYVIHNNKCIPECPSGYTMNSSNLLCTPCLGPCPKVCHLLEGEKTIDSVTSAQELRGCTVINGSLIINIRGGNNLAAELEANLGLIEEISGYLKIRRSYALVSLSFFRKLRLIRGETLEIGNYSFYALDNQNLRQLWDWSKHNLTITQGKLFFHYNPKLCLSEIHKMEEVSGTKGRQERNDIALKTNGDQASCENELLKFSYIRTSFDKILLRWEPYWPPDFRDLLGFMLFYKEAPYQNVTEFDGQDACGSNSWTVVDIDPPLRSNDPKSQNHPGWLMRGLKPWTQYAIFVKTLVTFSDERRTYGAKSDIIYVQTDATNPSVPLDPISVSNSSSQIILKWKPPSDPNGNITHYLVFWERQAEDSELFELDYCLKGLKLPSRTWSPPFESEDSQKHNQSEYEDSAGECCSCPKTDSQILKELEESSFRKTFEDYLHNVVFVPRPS
Chain of human insulin receptor (P06213 763-1382 partner limits assumed): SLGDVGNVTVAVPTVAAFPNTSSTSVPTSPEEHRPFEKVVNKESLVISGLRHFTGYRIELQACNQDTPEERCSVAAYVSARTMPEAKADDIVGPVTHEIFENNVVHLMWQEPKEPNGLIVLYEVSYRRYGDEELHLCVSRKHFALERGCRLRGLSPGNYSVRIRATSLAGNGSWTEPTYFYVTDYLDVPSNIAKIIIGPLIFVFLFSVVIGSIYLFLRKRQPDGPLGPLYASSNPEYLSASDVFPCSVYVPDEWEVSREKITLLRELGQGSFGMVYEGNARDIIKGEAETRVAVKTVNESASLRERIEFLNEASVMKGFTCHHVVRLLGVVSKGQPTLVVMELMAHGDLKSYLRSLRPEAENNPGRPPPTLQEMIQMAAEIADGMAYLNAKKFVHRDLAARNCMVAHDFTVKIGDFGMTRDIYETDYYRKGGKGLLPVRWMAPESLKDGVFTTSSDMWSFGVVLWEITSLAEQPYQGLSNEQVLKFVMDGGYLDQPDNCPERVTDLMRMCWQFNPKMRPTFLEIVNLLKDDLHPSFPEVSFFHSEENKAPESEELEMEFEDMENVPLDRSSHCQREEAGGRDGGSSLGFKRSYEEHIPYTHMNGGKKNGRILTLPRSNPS
Procedure: SPA-PVT antibody-binding beads, anti-mouse reagent (Amersham Biosciences, Cat No. PRNQ0017) were mixed with 25 ml of binding buffer (100 mM HEPES pH 7.8; 100 mM sodium chloride, 10 mM MgSO4, 0.025% Tween-20). […] A total of 100 μl was then added and a dilution series is made from appropriate samples. To the dilution series was then added 100 μl of reagent mix and the samples were incubated for 16 hours while gently shaken. The phases were the then separated by centrifugation for 1 min and the plates counted in a Topcounter. The binding data were fitted using the nonlinear regression algorithm in the GraphPad Prism 2.01 (GraphPad Software, San Diego, Calif.).

[2] = Self-association by size exclusion chromatography (SEC), Kav; assay type: physicochemical
Procedure: The ability of the insulin derivatives of the invention to self-associate into large, but soluble complexes is analysed using SEC (size exclusion chromatography):
The following equation is used to determine the Kav for the derivative: Kav=(t−t0)/(Vt/(f+td−t0)) Where t is the retention time for a given peak, t0 is the retention time for Blue dextran, Vt is the total column volume (here 2.4 ml), f is the flow (here 0.04 ml/min), and td is the retention time for Blue dextran without the column in the system.

[3] = LiChrosorb RP18, 40° C., pH 7.3, HI = 1
[4] = recombinant human insulin receptor-exon 11, SPA

Row | Substance | Hydrophobicity relative to human insulin [1, 3] | Hydrophobicity relative to human insulin ([1]; class symbol, HI = 1) | Insulin receptor affinity relative to human insulin (human insulin receptor; class symbol) | Insulin receptor affinity relative to human insulin (human insulin receptor; [4]) | Self-association: Kav ([2]; SEC Superose 6, 37° C., 0.6 mM derivative, 2.1 Zn2+/hexamer, 16 mM phenol, pH 7.8, one value per peak) | Self-association: % area of peak ([2]; area of the peak whose Kav is in the cell above) | Self-association: Kav ([2]; class symbol)
1 | N^εB29-ω-carboxy-undecanoyl-δ-amino-butanoyl desB30 human insulin [Example 13] | 0.552 | +++ (k'rel < 1: +++) | +++ (>50%: +++) | 59% | 0.69 | (100%) | + (Kav ≧ 0.55: +)
2 | N^εB29-ω-carboxy-pentadecanoyl-γ-L-aspartylamide desB30 human insulin [Example 6] | – | – | ++ (5-50%: ++) | 33% | – | – | –
3 | N^εB29-(3-(3-{4-[3-(7-carboxyheptanoylamino)propoxy]butoxy}propylcarbamoyl)-propionyl-γ-glutamylamide) desB30 human Insulin [Example 11] | 0.435 | +++ (k'rel < 1: +++) | ++ (5-50%: ++) | 43% | – | – | –
